For 2 substances, pRb kinase activity (fold less efficient) results are on record in US6033847.

For assay [1], the target named is CDK6-cyclin D2 holoenzyme complex (Mus musculus (Mouse)) (UniProt P30280).
Assay [2] concerns the target CDK4-cyclin D2 holoenzyme complex (Mus musculus (Mouse)) (UniProt P30285).

Where only a bound is given, the exact number is not on record here.

In the case of “GST-ANK6 (GST fused to the MAD3 subdomain containing only the five ankyrin repeats, amino acids 73-242) (from UniProt P08515)”, the pRb kinase activity (fold less efficient) in assay [1] and in assay [2] was more than 30 throughout.

For the substance “GST-MAD3 (GST fused to mouse IkB (MAD3)) (from UniProt Q9Z1E3)”, the pRb kinase activity (fold less efficient) in assay [1] and in assay [2] was more than 30 throughout.
